From paper PMC4599338 (Microbial Cell Factories, 2015)

B1: AC (VHH)
VHH: DVQLQASGGGLVQPGGSLRLTCAASGLIFGSYAMGWFRQAPGKAREFVAAISWSGGDTYADSVKGRFTISRDNAKNTVYLQMNSLEPEDTAVYSCAAVGSKYYISKDAKDYGYWGQGTQVTVSS
B2: sdAb clone L1-G2 (VHH)
VHH: EVQLQASGGGLVQAGGSLRLSCTASGRAFSTTNMGWFRQAPGKEREFVTRVNWSGGVTSYADSVKGRFTLSRDNTKNTVYLQMDSLKPEDTAVYYCAGSTVWSTDRKHYNYWGQGTQVTVSS
B3: sdAb clone L1-G2+neg2 (VHH)
VHH: EVQLVESGGGLVQDGDSLRLSCTASGRAFSTTNMGWFRQAPGKEREFVCRVNWSGGVTSYADSVKGRFTCSADNTKNTVYLQMDSLKPEDTAVYYCAGSTVWSTDRKHYNYWGQGTQVTVSS
B4: sdAb clone L1-G2+ (VHH)
VHH: EVQLQASGGGLVQAGGSLRLSCTASGRAFSTTNMGWFRQAPGKEREFVCRVNWSGGVTSYADSVKGRFTCSRDNTKNTVYLQMDSLKPEDTAVYYCAGSTVWSTDRKHYNYWGQGTQVTVSS
B5: sdAb clone L1-G2+neg (VHH)
VHH: EVQLVESGGGLVQDGDSLRLSCTASGRAFSTTNMGWFRQAPGKEREFVCRVNWSGGVTSYADSVKGRFTCSRDNTKNTVYLQMDSLKPEDTAVYYCAGSTVWSTDRKHYNYWGQGTQVTVSS

biological target: Staphylococcal enterotoxin B (Staphylococcus aureus, strain , UniProt P01552); experiment: not given; conditions: not given

Question: Does B1 bind?
Answer: Result: binds

biological target: Vaccinia Virus, Western Reserve, L1R Protein with C-Terminal Histidine Tag, Recombinant from baculovirus (Vaccinia virus, Western Reserve, UniProt P07612); experiment: SPR; […] (100 to 0 nM, […], dissociation 600 s; […]; Langmuir model; […]; conditions: both partners purified

Question: B2 was tested. Which Kd did it give?
Answer: The Kd was 1.1 nM.

Question: What about the koff of the same binder?
Answer: Its koff is 0.00063 s⁻¹.

Question: And the kon?
Answer: The kon was 580000 M⁻¹ s⁻¹.

Question: For B3, which Kd is on record?
Answer: Its Kd is 23 nM.

Question: And the koff?
Answer: The koff was 0.013 s⁻¹.

Question: What about the kon of the same binder?
Answer: Its kon is 540000 M⁻¹ s⁻¹.

Question: Which results are given for B4?
Answer: Kd: 2.4 nM; koff: 0.0013 s⁻¹; kon: 590000 M⁻¹ s⁻¹

Question: Which Kd does the source give for B5 here?
Answer: The Kd was 3.3 nM.

Question: What about the koff of the same binder?
Answer: Its koff is 0.0014 s⁻¹.

Question: And the kon?
Answer: Its kon is 420000 M⁻¹ s⁻¹.
